The results in this text go back to patent US20180231548.

Series [1] addresses T1, Methyl Red (MR)-AAPV-NBD-UBI29-41.
T1 chain: AAPVKTGRAKRRMQYNRR

B1: human neutrophil elastase (protein)
chain: IVGGRRARPHAWPFMVSLQLRGGHFCGATLIAPNFVMSAAHCVANVNVRAVRVVLGAHNLSRREPTRQVFAVQRIFENGYDPVNLLNDIVILQLNGSATINANVQVAQLPAQGRRLGNGVQCLAMGWGLLGRNRGIASVLQELNVTVVTSLCRRSNVCTLVRGRQAGVCFGDSGSPLVCNGLIHGIASFVRGGCASGLYPDAFAPVAQFVNWIDSIIQ
With B1, the “bacterial labelling by NBD after cleavage of the probe; confocal images of a co-culture of bacteria and human neutrophils” value in series [1] was “These images confirm the ability of the probe to be cleaved by neutrophil derived HNE and to label bacteria”. Besides, in the series with TAMRA-AAPV-NBD-PMX, the “fluorescence of the cleaved TAMRA compound (spectrophotometer) and NBD labelling of bacteria after cleavage” value is “the fluorescence of the cleaved TAMRA compound increases in an elastase dependent manner and are inhibited with an elastase inhibitor such as sivelestat”.
